Experimental data: patent US20250215467A1, “L-THREONINE TRANSALDOLASES AND USES THEREOF” (University of Delaware, priority 2022, published 2025)
Like-named read-outs stand apart in the source and are kept apart here.

B1: PiTTA: TTA, SEQ ID NO: 31, Pseudomonas sp. Irchel s3a18 (protein)
chain: MKQDESNVGPVIDWLAQTLGQDYKYRQDTLSLTANENYPSELVRLTSGSTAGAFYHCSFPFPVPLGEWHFPEPGQMNEIADDLRGLAKRMMGAQAFDWRPNGGSPAEQALMLAACKQGEGFVHFAHRDGGHFALEQLATKMGIEIFHLPVDPQSLLIDVAKLDDMVRRNPHIRIVILDQSFKLRWQPLAEIRAILPDSCTLTYDMSHDGGLILGGVFDSPLACGADIAHGNTHKTIPGPQKGFIAFKSAQHPLLVETSLWVCPHLQSNCHAELLPSMWAAFKEMEAFGPAYAHQMVRNAKALANQLHELGLNVSGESFGFTETHQVHFAVGDLQQALSMCVDSLHAGGIRSTNIEIPGKPGMHGIRLGVQAMTRRGMKEDDFRRVAGLIADLYFKRTEPARVASKVKELLGDFPLAPLAYSFDQQIDESRRRLLERGIQR
modifications: Pseudomonas_sp._Irchel_s3a18
notes: Irchel s3a18
B2: KaTTA: L-threonine transaldolase, SEQ ID NO: 1, Kitasatospora aureofaciens, WP_033354341 (protein, listed as Kitasatospora aureofaciens)
chain: MDVLAALERKHSLNLFPIENRLSPRAAAALASDAVNRYPYSETDVAVYGDVSDLNAVYDHCVSLTKEFYGARHAYVQFLSGLHTMHTVLTAVTPPGGRVMVIAPEDGGHYATVTICQGFGYRVEYVPFDRQTLEIDYTALAERTAEHPADVIYLDASTVLRMPDARALRAAAPGAVLCLDASHLLGLLPAAPGTLVLDAGFDSISGSTHKTLPGPQKGLLVTNSDAIAEQVGARIPFTASSSHSASVGSLAITLEELLPHRGDYARQVIANARELARQLAARGFDVAGEAFGFTDTHQVWVHHPEGNTPHEWGRLLTATDIRTTTVVLPSTARSGLRLGTQELTRWGMKEDDMTTVAELLARLLLRGEQSRSVAADVRDLARSFPGVAFADRPAPLAVA
B3: BuTTA: TTA, SEQ ID NO: 34, Burkholderia ubonensis (protein, listed as Burkholderia ubonensis)
chain: MTDFAQAVVNPFVDEQRKSRLVEKISNIFDSLHSDFALDNLYRASHLSLTASENYPSRFVRTLGAGMQGGFYEFAPPYAANPGEWYFPDSGAQSSLVEKLASLGKQLFEANSFDWRPNGGSAAEQAVLLGTCARGDGFVHFAHKDGGHFALEELAQKVGVSIFHLPIEEKSLLIDVDRLATLIKDNPHIKLVILDQSFKLRWQPLLQIRQALPESVVLSYDASHDGGLIIGECLPQPLLFGADIVHGNTHKTIPGPQKGYIAFKNVDHPAMKHVSDWVCPHLQSNSHAELIAPMYIALVEMSLYGRSYAEQVIKNAKALAHALHAEGVRVSGESFGFTETHQVHVVVGSERKALELVTGTLALAGIRCNNIEIPGANGLFGLRLGVQALTRRGIKEHGMAEVARFLVRLILKNESPTAIRNEIASFLESYPINTLHYSLDAHYYTPSGIKLMEEVIA
B4: CsTTA: TTA, SEQ ID NO: 33, Chitiniphilus shinanonensis (protein, listed as Chitiniphilus shinanonensis)
chain: MTRTTPQARHVVERLNSVLGQDYRYREDCLSLTANENYPSALVRLAGSATAGAFYHCSFPFEVPPGEWYFPESGRMGELAQQLNELGRSLLGAGTFDWRPNGGSPAEQALMLAACKHGEGMVHFAHRDGGHFALENLAQKAGIDIFHLPVDPQTLLIDVARLDELVRRNPQIRIVILDQSFKLRWQPLAAIRKVLPPSCTLTYDTSHDGGLIMGGVFDSPLHCGADVIHGNTHKTVPGPQKGYIAFKSAEHPLLVDTSLWLCPHLQSNCHAELLPPMWVAFKEMEAFGHDYAPQVARNAKALAGHLHRLGFEVSGEAFGFTETHQVHFAVGDLQQALDLCMNTLHRGGIRSTNIEIPGKPGIQGIRLGVQAMTRRGLREDDFEQVARFIADLHFRKADPAGVAAQVAEFLRAFPLAPLHYSFDQELDHELLQSLIGEALR
B5: ObiH: known L-threonine transaldolase of obafluorin biosynthesis, SEQ ID NO: 30, Pseudomonas fluorescens, ARJ35753.1 (protein)
chain: MSNVKQQTAQIVDWLSSTLGKDHQYREDSLSLTANENYPSALVRLTSGSTAGAFYHCSFPFEVPAGEWHFPEPGHMNAIADQVRDLGKTLIGAQAFDWRPNGGSTAEQALMLAACKPGEGFVHFAHRDGGHFALESLAQKMGIEIFHLPVNPTSLLIDVAKLDEMVRRNPHIRIVILDQSFKLRWQPLAEIRSVLPDSCTLTYDMSHDGGLIMGGVFDSPLSCGADIVHGNTHKTIPGPQKGYIGFKSAQHPLLVDTSLWVCPHLQSNCHAEQLPPMWVAFKEMELFGRDYAAQIVSNAKTLARHLHELGLDVTGESFGFTQTHQVHFAVGDLQKALDLCVNSLHAGGIRSTNIEIPGKPGVHGIRLGVQAMTRRGMKEKDFEVVARFIADLYFKKTEPAKVAQQIKEFLQAFPLAPLAYSFDNYLDEELLAAVYQGAQR
modifications: Psuedomonas fluorescenes

Tests used:
[1] = TTA-ADH coupled assay, screen of purified TTAs on 2-nitro-benzaldehyde; type: biochemical; conditions: substrate 3, TTA-ADH coupled assay
Method: (§1) High-throughput screening of purified TTAs was performed with a TTA-ADH coupled assay using purified TTA and commercially available alcohol dehydrogenase from S. cerevisiae purchased from MilliporeSigma. Aldehyde stocks were prepared in 50-100 mM solutions in DMSO or acetonitrile. Reaction mixtures were prepared in a 96-well plate with 100 μL of 100 mM phosphate buffer pH 7.5, 0.5 mM NADH, 0.4 mM PLP, 15 mM MgCl2, and 100 mM L-Thr with the addition of 0.25 mM to 1 mM aldehyde depending on the background absorbance at 340 nm (Table 4), 10 U ScADH, and 0.25 μM purified TTA unless otherwise specified. Reactions were initiated with the addition of enzyme. […] The following controls were included for every assay: reaction mixture without aldehyde, without TTA, and without enzyme (TTA or ADH). Rates were calculated by identifying the linear region at the beginning of the kinetic run and converting the depletion in absorbance to the depletion of mM NADH using an NADH standard curve.
Once purified, we identified the putative TTAs with high activity and further characterized them for their L-Thr affinity and substrate scope. We first screened each purified enzyme using the TTA-ADH coupled assay with 2-nitro-benzaldehyde, 3, the best performing substrate from the screen of ObiH that was not a substrate of the ScADH. […] With this evidence as well as well-aligned, predicted AlphaFold structures, we assumed the impact of the SUMO tag would be minimal for all TTAs screened and moved forward with additional enzyme characterization.

[2] = TTA-ADH coupled assay at different L-Thr concentrations (apparent L-Thr KM and kcat); type: biochemical; conditions: for L-Thr kcat compared with ObiH: phenylacetaldehyde as the aldehyde substrate; for Km: apparent, phenylacetaldehyde (14) as aldehyde, ADH coupling, non-linear regression
Method: as §1
We next sought to determine the affinity of these enzymes for L-Thr, which we obtained by performing the TTA-ADH coupled assay at different L-Thr concentrations (FIG. 16b). […] Two differences between our assays were the substrate, phenylacetaldehyde (14) instead of 4-nitrophenylacetylaldehyde (15), and the assay format, ADH coupling rather than a discontinuous HPLC assay. Because a live cellular environment would also contain alcohol dehydrogenases for reduction of acetaldehyde, it is possible that the KM values that we are measuring using the TTA-ADH coupled assay may be more realistic for our envisioned applications.

[3] = TTA-ADH coupled assay, substrate scope of TTAs on aromatic aldehydes; type: biochemical; conditions: for activity on a set of aromatic aldehyde substrates (substrate scope): substrates 1, 3, 6, 7, 8, 12, 15
Method: as §1
We specifically selected substrates with ring substituents with different electron withdrawing properties (1, 3, 6, 7, 8), substituent size (12), and aldehyde chain length (15) to compare the activity of the putative TTAs to ObiH. We were also encouraged by the activity of PbTTA and KaTTA on vanillin and protocatechualdehyde which are substrates that would form products like commercially available therapeutic, Droxidopa (FIG. 18).
To explore the possibility that DbTTA and TmTTA are TTAs active on other related aldehydes, we sought to examine their activity with L-Thr and aldehyde substrates with different ring substituent position (2), bulkier, hydrophobic chemistry (10), and aldehyde chain length (14) using the TTA-ADH coupled assay.

[4] = In vitro assay over 20 h with HPLC analysis (amino acid substrate specificity, diastereomeric excess); type: biochemical; conditions: 3 as aldehyde substrate
Method: Metabolites of interest were quantified via high-performance liquid chromatography (HPLC) using an Agilent 1260 Infinity model equipped with a Zorbax Eclipse Plus-C18 column. To quantify aldehyde and β-OH-nsAAs, an initial mobile phase of solvent A/B=95/5 was used (solvent A, water+0.1% TFA; solvent B, acetonitrile+0.1% TFA) and maintained for 5 min. A gradient elution was performed (A/B) as follows: gradient from 95/5 to 50/50 for 5-12 min, gradient from 50/50 to 0/100 for 12-13 min, and gradient from 0/100 to 95/5 for 13-14 min. A flow rate of 1 mL min-1 was maintained, and absorption was monitored at 210, 250 and 280 nm.
We performed an in vitro assay over 20 h using 3 as the aldehyde substrate and either L-Thr, Glycine (Gly), or L-Serine (L-Ser) as the candidate amino acid. Since the TTA-ADH coupled assay is specific to L-Thr, we analyzed TTA activity via HPLC with a chemically synthesized β-OH-nsAA standard for the assumed product from 3.

[5] = literature value; ObiH: 4-nitrophenylacetylaldehyde (15), discontinuous HPLC assay; read-out: reported L-Thr KM; cited from earlier work

Molecule	activity on 2-nitro-benzaldehyde relative to ObiH [1]	L-Thr kcat compared with ObiH [2]	activity on a set of aromatic aldehyde substrates (substrate scope) [3]	β-OH-nsAA formation using L-Ser or Gly [4]	Km [2] [mM]	activity on vanillin and protocatechualdehyde ([3]; TTA-ADH coupled assay)	Km [5] [mM]
B1	comparable to or better than ObiH	higher measured L-Thr kcat values than ObiH	relatively selective	no β-OH-nsAA formation			
B2	comparable to or better than ObiH			no β-OH-nsAA formation	19.1	activity	
B3	comparable to or better than ObiH	higher measured L-Thr kcat values than ObiH	relatively selective	no β-OH-nsAA formation			
B4	comparable to or better than ObiH	higher measured L-Thr kcat values than ObiH		no β-OH-nsAA formation			
B5					29.5		40.2 ± 3.8
